Source: paper PMC11221534, “A minimal RNA substrate with dual fluorescent probes enables rapid kinetics and provides insight into bacterial RNase P active site interactions”

T1: E. coli RNase P holoenzyme, P RNA U69A (Escherichia coli, UniProt P0A7Y8 1-119)
T1 sequence: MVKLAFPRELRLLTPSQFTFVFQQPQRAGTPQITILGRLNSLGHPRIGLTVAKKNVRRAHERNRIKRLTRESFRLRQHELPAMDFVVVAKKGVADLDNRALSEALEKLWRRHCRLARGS

T2: E. coli RNase P holoenzyme, P RNA C70U (Escherichia coli, UniProt P0A7Y8 1-119)
T2 sequence: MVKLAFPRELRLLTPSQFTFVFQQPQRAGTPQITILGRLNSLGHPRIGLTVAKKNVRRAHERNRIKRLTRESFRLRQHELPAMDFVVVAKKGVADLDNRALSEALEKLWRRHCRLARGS

T3: E. coli RNase P holoenzyme (C5 protein + P RNA), wild type (Escherichia coli, UniProt P0A7Y8 1-119)
T3 sequence: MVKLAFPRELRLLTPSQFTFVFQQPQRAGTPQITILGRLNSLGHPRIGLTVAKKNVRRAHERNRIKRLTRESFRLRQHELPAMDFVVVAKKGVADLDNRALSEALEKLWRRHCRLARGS


How the values were obtained:
[1] = molecular target: T1, E. coli RNase P holoenzyme, P RNA U69A; assay: single-turnover kinetics by PAGE (K'); 17.5 mM Mg2+; imprecise, very slow cleavage; 50 mM MES pH 6, 100 mM NaCl, 17.5 mM MgCl2 (or CaCl2), 0.015% Triton X-100 reduced, 37 C (PAGE single turnover); stopped-flow in similar buffer; conditions: protein: recombinant; label: 5' Cy3 on strand 1; 12 bp continuous helix with one U-G wobble; 5' overhang 9 nt, 3' overhang 4 nt (GCCA)
[2] = molecular target: T2, E. coli RNase P holoenzyme, P RNA C70U; assay: as above; conditions: protein: recombinant; label: 5' Cy3 on strand 1; 12 bp continuous helix with one U-G wobble; 5' overhang 9 nt, 3' overhang 4 nt (GCCA)
[3] = molecular target: T3, E. coli RNase P holoenzyme (C5 protein …); assay: single-turnover kinetics by PAGE (K' from kobs vs [E]); 17.5 mM Mg2+, pH 6; K' approximates Kd; 50 mM MES pH 6, 100 mM NaCl, 17.5 mM MgCl2 (or CaCl2), 0.015% Triton X-100 reduced, 37 C (PAGE single turnover); stopped-flow in similar buffer; conditions: protein: recombinant; label: 5' Cy3 on strand 1; 12 bp continuous helix with one U-G wobble; 5' overhang 9 nt, 3' overhang 4 nt (GCCA)
[4] = molecular target: T3, E. coli RNase P holoenzyme (C5 protein …); assay: stopped-flow 2Ap fluorescence, global fit (k-1/k1); 17.5 mM Mg2+; k1 0.43e6 M-1 s-1, k-1 0.084 s-1; 50 mM MES pH 6, 100 mM NaCl, 17.5 mM MgCl2 (or CaCl2), 0.015% Triton X-100 reduced, 37 C (PAGE single turnover); stopped-flow in similar buffer; conditions: protein: recombinant; label: 2-aminopurine; 12 bp continuous helix with one U-G wobble; 5' overhang 9 nt, 3' overhang 4 nt (GCCA)

Row | Binder | Kd [1] | Kd [2] | Kd [3] | Kd [4]
1 | 5'Cy3-MD1 (dsRNA, 2-aminopurine at position 8 (N-2) as printed, written A; Table 1 appears to swap the Cy3 between 5'Cy3-MD1 and 5'Ap(-2)-MD1) RNA 1: ACCCAAAAUGGUCCGGGCGGG RNA 2: CCCGUCCGGACCGCCA | < 250 nM | < 250 nM | 189 nM | –
2 | 5'Ap(-2)-MD1 (dsRNA, 2-aminopurine at position 8 (N-2), written A; Table 1 prints a 5' Cy3 (apparently swapped with 5'Cy3-MD1)) RNA 1: ACCCAAAAUGGUCCGGGCGGG RNA 2: CCCGUCCGGACCGCCA | – | – | – | 195 nM
